# B1: BD-623 Fab (Fab, V domains shown)
# VH: EVQLVESGGGLVQPGGSLRLSCAASGVTVSSNYMSWVRQAPGKGLEWVSAVYSGGSTYYADSVKGRFTISRHNSKNTLYLQMKSLRPEDTAIYYCARLINHYYDSSGDGGAFDIWGQGTMVTVSS
# VL: LTQPASVSGSPGQSITISCTGTSSDVGSYNLVSWYQQRPGKAPKLILYEVTKRPSGVSNRFSGSKSGNTASLAISGLQAEDEADYYCCSYAGSSTWVFGGGTKLTVL
# B2: BD-515 Fab (Fab, V domains shown)
# VH: EVQLVESGGGLVQPGGSLRLSCAASEFIVSRNYMSWVRQAPGKGLEWVSVIYSGGSTFYADSVKGRFTISRDNSKNTLYLQMNSLRAEDTGVYYCARDRGLVSDYWGQGTLVTVSS
# VL: DIQMTQSPSSLSASVGDRVTITCQASQDINKYLNWYQQKPGKAPKLLIFDASHLETGVPSRFSASGSGTDFTFTISSLQPEDIATYYCHQYDNLPRTFGQGTRLEIK
# B3: BD-508 Fab (Fab, V domains shown)
# VH: EVQLVESGGGLVQPGGSLRLSCAASGFIVSSNYMTWVRQAPGKGLEWVSVIYSGGSTFYADSVKGRFTISRHNSKNTLFLQMNSLRAEDTAVYYCARDAQNYGMDVWGQGTTVTVSS
# VL: DIQMTQSPSSLSASVGDRVTITCRASQSISSYLNWYQQKPGKAPKLLIFAASSLQTGAPSRFSGSGSGTDFTLTISSLQPEDFATYYCQQSYSTPPYTFGQGTKLEIK
# Biological target: SARS-CoV-2 S protein receptor-binding domain (RBD), residues 319–541 (SARS-CoV-2, UniProt P0DTC2)
# Assay: crystal structure
# Details: both partners purified
row,Binder,binding result
1,B1,binds
2,B2,binds
3,B3,binds

# From publication PMC8138844 (Cell Research, 2021)
